Test results as given in patent US9266964.

Experiments:
human plasma kallikrein [1] = molecular target: T1, human plasma kallikrein (human, UniProt P03952 20-390; P03952 391-638); assay: Ki,app, inhibition of human pKal enzyme activity
T1 construct: two disulfide-linked chains; also called pKal; human pKal

human plasma kallikrein [2] = molecular target: T1, human plasma kallikrein; assay: cell-based or functional assay
human plasma kallikrein [3] = molecular target: T2, human plasma kallikrein (human, UniProt P03952 20-390; P03952 391-638); assay: Ki,app as an IgG, steady state enzyme kinetics, inhibition of human pKal
T2 construct: two disulfide linked chains; also called pKal; human pKal

[4] = molecular target: T3, human plasma kallikrein (full length, active) (human, UniProt P03952 20-390; P03952 391-638); assay: Ki,app: enzyme inhibition, fluorescent substrate, 2 h pre-incubation at 30 C, tight-binding fit
T3 construct: two disulfide linked polypeptides; also called Full length pKal; pKal
Method: Apparent Inhibition constants (K_{i,app} values) were measured by pre-incubating enzyme and inhibitor solutions prior to initiating the reactions with substrate. Enzyme and inhibitor were pre-incubated for 2 hours at 30° C. in a 96-well plate by adding 10 μL of a 10× enzyme solution and 10 μL of 10× inhibitor solutions to 70 μL of reaction buffer. Reactions were initiated by the addition of 10 μL of a 10× concentrated stock of substrate, and were monitored at 30° C. in a fluorescence plate reader with the excitation and emission wavelengths set at 360 nm/460 nm, respectively. Kinetic data were acquired by the increase in fluorescence, and initial rates for each condition were plotted against the total inhibitor concentration. The data was fit to the following equation for tight binding inhibitors: […]

T3 sequence (P03952 20-390, chain 1 of 2): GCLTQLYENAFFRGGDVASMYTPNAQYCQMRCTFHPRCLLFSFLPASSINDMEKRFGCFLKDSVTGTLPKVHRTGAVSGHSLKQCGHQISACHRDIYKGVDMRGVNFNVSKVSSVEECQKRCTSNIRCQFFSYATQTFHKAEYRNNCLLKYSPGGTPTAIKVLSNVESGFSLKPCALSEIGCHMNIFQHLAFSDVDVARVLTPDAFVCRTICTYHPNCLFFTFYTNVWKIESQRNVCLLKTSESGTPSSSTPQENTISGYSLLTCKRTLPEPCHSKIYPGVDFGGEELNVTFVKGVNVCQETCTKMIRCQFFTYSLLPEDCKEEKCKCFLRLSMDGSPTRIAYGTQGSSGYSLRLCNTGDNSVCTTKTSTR
T3 sequence (P03952 391-638, chain 2 of 2): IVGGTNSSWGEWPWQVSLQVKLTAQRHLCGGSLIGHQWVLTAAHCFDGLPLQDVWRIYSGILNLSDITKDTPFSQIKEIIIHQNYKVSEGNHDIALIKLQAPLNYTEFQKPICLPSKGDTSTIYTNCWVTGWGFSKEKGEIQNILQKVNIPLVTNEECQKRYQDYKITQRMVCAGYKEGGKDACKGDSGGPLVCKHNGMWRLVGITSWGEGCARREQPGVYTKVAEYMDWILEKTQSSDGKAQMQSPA

Row | Binder | Ki (human plasma kallikrein [1]) | % inhibition at 10 nM (human plasma kallikrein [2]) | Ki (human plasma kallikrein [3]) | Ki [4]
1 | M199-A08 (Fab, V domains shown) VH: EVQLLESGGGLVQPGGSLRLSCAASGFTFSHYIMMWVRQAPGKGLEWVSGIYSSGGITVYADSVKGRFTISRDNSKNTLYLQMNSLRAEDTAVYYCAYRRIGVPRRDEFDIWGQGTMVTVSS VL: DIQMTQSPSTLSASVGDRVTITCRASQSISSWLAWYQQKPGKAPNLLIYKASTLESGVPSRFSGSGSGTEFTLTISSLQPDDFATYYCQQYNTYWTFGQGTKVEIK | 0.06 nM | 96.4% |  | 
2 | M202-D09 (Fab, V domains shown, Tested as Fab; printed HC runs into CH1) VH: EVQLLESGGGLVQPGGSLRLSCAASGFTFSHYIMMWVRQAPGKGLEWVSGIYSSGGITVYADSVKGRFTISRDNSKNTLYLQMNSLRAEDTAVYYCAYRRIGVPRRDSFDIWGQGTMVTVSS VL: DIQMTQSPSTLSASVGDRVTITCRASQSISSWLAWYQQKPGKAPNLLIYKASTLESGVPSRFSGSGSGTEFTLTISSLQPDDFATYYCQQYNTYWTFGQGTKVEIK | 0.4 nM | 95% |  | 
3 | M200-D03 (Fab, V domains shown, Tested as Fab; printed HC runs into CH1) VH: EVQLLESGGGLVQPGGSLRLSCAASGFTFSHYIMMWVRQAPGKGLEWVSGIYSSGGITVYADSVKGRFTISRDNSKNTLYLQMNSLRAEDTAVYYCAWRRIGVPRRDSFDMWGQGTMVTVSS VL: DIQMTQSPSTLSASVGDRVTITCRASQSISSWLAWYQQKPGKAPNLLIYKASTLESGVPSRFSGSGSGTEFTLTISSLQPDDFATYYCQQYNTYWTFGQGTKVEIK | 0.1 nM | 95.9% |  | 
4 | M202-B03 (Fab, V domains shown, Tested as Fab; printed HC runs into CH1) VH: EVQLLESGGGLVQPGGSLRLSCAASGFTFSHYIMMWVRQAPGKGLEWVSGIYSSGGITVYADSVKGRFTISRDNSKNTLYLQMNSLRAEDTAVYYCAYRRTGVPRRDDFDIWGQGTMVTVSS VL: DIQMTQSPSTLSASVGDRVTITCRASQSISSWLAWYQQKPGKAPNLLIYKASTLESGVPSRFSGSGSGTEFTLTISSLQPDDFATYYCQQYNTYWTFGQGTKVEIK | 0.3 nM | 93.1% |  | 
5 | M201-A07 (Fab, V domains shown, Tested as Fab; printed HC runs into CH1) VH: EVQLLESGGGLVQPGGSLRLSCAASGFTFSHYIMMWVRQAPGKGLEWVSGIYSSGGITVYADSVKGRFTISRDNSKNTLYLQMNSLRAEDTAVYYCAYRRTGVPRRDEFDIWGQGTMVTVSS VL: DIQMTQSPSTLSASVGDRVTITCRASQSISSWLAWYQQKPGKAPNLLIYKASTLESGVPSRFSGSGSGTEFTLTISSLQPDDFATYYCQQYNTYWTFGQGTKVEIK | 0.1 nM | 95.7% |  | 
6 | M202-C01 (Fab, V domains shown, Tested as Fab; printed HC runs into CH1) VH: EVQLLESGGGLVQPGGSLRLSCAASGFTFSHYIMMWVRQAPGKGLEWVSGIYSSGGITVYADSVKGRFTISRDNSKNTLYLQMNSLRAEDTAVYYCAYRRTGVPRWDDFDIWGQGTMVTVSS VL: DIQMTQSPSTLSASVGDRVTITCRASQSISSWLAWYQQKPGKAPNLLIYKASTLESGVPSRFSGSGSGTEFTLTISSLQPDDFATYYCQQYNTYWTFGQGTKVEIK | 0.1 nM | 96.3% |  | 
7 | M202-H03 (Fab, V domains shown, Tested as Fab; printed HC runs into CH1; Same CDRs as M202-C01, differs at the residue before HV-CDR3 (F for Y)) VH: EVQLLESGGGLVQPGGSLRLSCAASGFTFSHYIMMWVRQAPGKGLEWVSGIYSSGGITVYADSVKGRFTISRDNSKNTLYLQMNSLRAEDTAVYYCAFRRTGVPRWDDFDIWGQGTMVTVSS VL: DIQMTQSPSTLSASVGDRVTITCRASQSISSWLAWYQQKPGKAPNLLIYKASTLESGVPSRFSGSGSGTEFTLTISSLQPDDFATYYCQQYNTYWTFGQGTKVEIK | 0.1 nM | 95.7% |  | 
8 | M202-C09 (Fab, V domains shown, Tested as Fab; printed HC runs into CH1) VH: EVQLLESGGGLVQPGGSLRLSCAASGFTFSHYIMMWVRQAPGKGLEWVSGIYSSGGITVYADSVKGRFTISRDNSKNTLYLQMNSLRAEDTAVYYCAYRRIGVPRRDDFDIWGQGTMVTVSS VL: DIQMTQSPSTLSASVGDRVTITCRASQSISSWLAWYQQKPGKAPNLLIYKASTLESGVPSRFSGSGSGTEFTLTISSLQPDDFATYYCQQYNTYWTFGQGTKVEIK | 0.3 nM | 92.3% |  | 
9 | M202-A12 (Fab, V domains shown, Tested as Fab; printed HC runs into CH1) VH: EVQLLESGGGLVQPGGSLRLSCAASGFTFSHYIMMWVRQAPGKGLEWVSGIYSSGGITVYADSVKGRFTISRDNSKNTLYLQMNSLRAEDTAVYYCAYQRTGVPRRDSFNIWGQGTMVTVSS VL: DIQMTQSPSTLSASVGDRVTITCRASQSISSWLAWYQQKPGKAPNLLIYKASTLESGVPSRFSGSGSGTEFTLTISSLQPDDFATYYCQQYNTYWTFGQGTKVEIK | 0.2 nM | 97.5% |  | 
10 | X69-C09 (IgG) (antibody, V domains shown, Full length human IgG1; printed HC runs into CH1; also called Parental) VH: EVQLLESGGGLVQPGGSLRLSCAASGFTFSAYSMIWVRQAPGKGLEWVSYIRPSGGRTTYADSVKGRFTISRDNSKNTLYLQMNSLRAEDTAVYYCARGGLLLWFRELKSNYFDYWGQGTLVTVSS VL: DIQMTQSPSSLSAFVGDRVTITCRASQPIDNYLNWYHQKPGKAPKLLIYAASRLQSGVPSRLSGSGFGTDFTLTISSLQPEDFGNYYCQQSYTVPYTFGGGTKVEIR |  |  | 0.2 nM | 
11 | X67-C03 (IgG) (antibody, V domains shown, printed HC runs into CH1) VH: EVQLLESGGGLVQPGGSLRLSCAASGFTFSAYSMIWVRQAPGKGLEWVSYIRPSGGRTTYADSVKGRFTISRDNSKNTLYLQMNSLRAEDTAVYYCARGGLLLWMRELKSNYFDYWGQGTLVTVSS VL: DIQMTQSPSSLSAFVGDRVTITCRASQPIDNYLNWYHQKPGKAPKLLIYAASRLQSGVPSRLSGSGFGTDFTLTISSLQPEDFGNYYCQQSYTVPYTFGGGTKVEIR |  |  | 0.7 nM | 
12 | X67-E04 (IgG) (antibody, V domains shown, printed HC runs into CH1) VH: EVQLLESGGGLVQPGGSLRLSCAASGFTFSAYSMIWVRQAPGKGLEWVSYIRPSGGRTTYADSVKGRFTISRDNSKNTLYLQMNSLRAEDTAVYYCARGGLLLWDRELKSNYFDYWGQGTLVTVSS VL: DIQMTQSPSSLSAFVGDRVTITCRASQPIDNYLNWYHQKPGKAPKLLIYAASRLQSGVPSRLSGSGFGTDFTLTISSLQPEDFGNYYCQQSYTVPYTFGGGTKVEIR |  |  | 1.3 nM | 
13 | X67-F01 (IgG) (antibody, V domains shown, printed HC runs into CH1) VH: EVQLLESGGGLVQPGGSLRLSCAASGFTFSAYSMIWVRQAPGKGLEWVSYIRPSGGRTTYADSVKGRFTISRDNSKNTLYLQMNSLRAEDTAVYYCARGGLLLWQRELKSNYFDYWGQGTLVTVSS VL: DIQMTQSPSSLSAFVGDRVTITCRASQPIDNYLNWYHQKPGKAPKLLIYAASRLQSGVPSRLSGSGFGTDFTLTISSLQPEDFGNYYCQQSYTVPYTFGGGTKVEIR |  |  | 0.9 nM | 
14 | X67-B03 (IgG) (antibody, V domains shown, printed HC runs into CH1) VH: EVQLLESGGGLVQPGGSLRLSCAASGFTFSAYSMIWVRQAPGKGLEWVSYIRPSGGRTTYADSVKGRFTISRDNSKNTLYLQMNSLRAEDTAVYYCARGGLLLWSRELKSNYFDYWGQGTLVTVSS VL: DIQMTQSPSSLSAFVGDRVTITCRASQPIDNYLNWYHQKPGKAPKLLIYAASRLQSGVPSRLSGSGFGTDFTLTISSLQPEDFGNYYCQQSYTVPYTFGGGTKVEIR |  |  | 2.1 nM | 
15 | X67-C09 (IgG) (antibody, V domains shown, printed HC runs into CH1) VH: EVQLLESGGGLVQPGGSLRLSCAASGFTFSAYSMIWVRQAPGKGLEWVSYIRPSGGRTTYADSVKGRFTISRDNSKNTLYLQMNSLRAEDTAVYYCARGGLLLWGRELKSNYFDYWGQGTLVTVSS VL: DIQMTQSPSSLSAFVGDRVTITCRASQPIDNYLNWYHQKPGKAPKLLIYAASRLQSGVPSRLSGSGFGTDFTLTISSLQPEDFGNYYCQQSYTVPYTFGGGTKVEIR |  |  | 8.6 nM | 
16 | X67-F10 (IgG) (antibody, V domains shown, printed HC runs into CH1) VH: EVQLLESGGGLVQPGGSLRLSCAASGFTFSAYSMIWVRQAPGKGLEWVSYIRPSGGRTTYADSVKGRFTISRDNSKNTLYLQMNSLRAEDTAVYYCARGGLLLWTRELKSNYFDYWGQGTLVTVSS VL: DIQMTQSPSSLSAFVGDRVTITCRASQPIDNYLNWYHQKPGKAPKLLIYAASRLQSGVPSRLSGSGFGTDFTLTISSLQPEDFGNYYCQQSYTVPYTFGGGTKVEIR |  |  | 1.3 nM | 
17 | X115-D05 (antibody, V domains shown, only variable domains given; also called 559A-X115-D05; 559A-X0115-D05) VH: EVQLLESGGGLVQPGGSLRLSCAASGFTFSDYMMAWVRQAPGKGLEWVSSIVPSGGHTHYADSVKGRFTISRDNSKNTLYLQMNSLRAEDTAVYYCARVARGIAARSRTSYFDYWGQGTLVTVSS VL: EIVLTQSPGTLSLSPGERATLSCRTSQFVNSNYLAWYQQKPGQAPRLLIYGASSRATGIPDRFSGSGSGTDFTLTISRLEPEDFAVYYCQQSSRTPWTFGQGTKVEIK |  |  |  | 0.25 nM
18 | X115-H06 (antibody, V domains shown, only variable domains given; also called 559A-X115-H06; 559A-X0115-H06) VH: EVQLLESGGGLVQPGGSLRLSCAASGFTFSHYLMTWVRQAPGKGLEWVSYISPSGGHTIYADSVKGRFTISRDNSKNTLYLQMNSLRAEDTAVYYCARVAQGISARSRTSYFDYWGQGTLVTVSS VL: EIVLTQSPGTLSLSPGERATLSCRTSQFVNSNYLAWYQQKPGQAPRLLIYGASSRATGIPDRFSGSGSGTDFTLTISRLEPEDFAVYYCQQSSRTPWTFGQGTKVEIK |  |  |  | 0.35 nM
19 | X115-E09 (antibody, V domains shown, only variable domains given; also called 559A-X115-E09; 559A-X0115-E09) VH: EVQLLESGGGLVQPGGSLRLSCAASGFTFSHYLMTWVRQAPGKGLEWVSYISPSGGHTIYADSVKGRFTISRDNSKNTLYLQMNSLRAEDTAVYYCARVAQGIAARSRTSSVDQWGQGTLVTVSS VL: EIVLTQSPGTLSLSPGERATLSCRTSQFVNSNYLAWYQQKPGQAPRLLIYGASSRATGIPDRFSGSGSGTDFTLTISRLEPEDFAVYYCQQSSRTPWTFGQGTKVEIK |  |  |  | 0.34 nM
